Experiments:
cSNK:BSA conjugate [1] = target: T1, cSNK:BSA conjugate (bovine, head-to-tail cyclized; conjugated to BSA carrier); experiment: BLI (Octet RED96), 2:1 kinetics, KD2, summary table
T1 construct: also called BSA-cSNK
Method: (§1) Biolayer interferometry (Octet […], ForteBio) was used to qualitatively/quantitatively assess the interactions between humanized versions of 5E3 and cSNK:BSA conjugate. […] MAbs were loaded onto sensors and then washed in PBST. Each sensor was associated with one of several cSNK:BSA standards (100 nM to 0 nM) and then washed in PBST. Data was processed statistically using ForteBio Data Analysis software to determine the strength of antigen-antibody binding (KD). For each mAb analyzed, a 2:1 model provided the “best fit”.
(§2) Table 7 summarizes the affinity constants of humanized 5E3 IgG1, IgG2 and IgG4 constructs. The KD ranges were determined using 2:1 kinetics of binding of analyte (BSA-cSNK) in solution to two different binding sites on the surface (immobilized bivalent, monospecific 5E3) in comparison to murine 5E3 using biolayer interferometry (Octet RED96).

cSNK:BSA conjugate [2] = target: T1, cSNK:BSA conjugate; experiment: BLI 2:1 fit, column kon; 100 nM row
Method: as §1

cSNK:BSA conjugate [3] = target: T1, cSNK:BSA conjugate; experiment: BLI 2:1 fit, column kon2; 25 nM row
Method: as §1

cSNK:BSA conjugate [4] = target: T1, cSNK:BSA conjugate; experiment: BLI 2:1 fit, column kdis2; 25 nM row
Method: as §1

cSNK:BSA conjugate [5] = target: T1, cSNK:BSA conjugate; experiment: BLI 2:1 fit, column kon; 50 nM row
Method: as §1

cSNK:BSA conjugate [6] = target: T1, cSNK:BSA conjugate; experiment: BLI 2:1 fit, column kon2; 100 nM row
Method: as §1

cSNK:BSA conjugate [7] = target: T1, cSNK:BSA conjugate; experiment: BLI 2:1 fit, column kon2; 6.25 nM row
Method: as §1

cSNK:BSA conjugate [8] = target: T1, cSNK:BSA conjugate; experiment: BLI 2:1 fit, column KD; 50 nM row
Method: as §1

cSNK:BSA conjugate [9] = target: T1, cSNK:BSA conjugate; experiment: BLI 2:1 fit, column kdis; 6.25 nM row
Method: as §1

cSNK:BSA conjugate [10] = target: T1, cSNK:BSA conjugate; experiment: BLI 2:1 fit, column KD2; 50 nM row
Method: as §1

cSNK:BSA conjugate [11] = target: T1, cSNK:BSA conjugate; experiment: BLI 2:1 fit, column kdis; 25 nM row
Method: as §1

cSNK:BSA conjugate [12] = target: T1, cSNK:BSA conjugate; experiment: BLI 2:1 fit, column kon; 6.25 nM row
Method: as §1

cSNK:BSA conjugate [13] = target: T1, cSNK:BSA conjugate; experiment: BLI 2:1 fit, column KD2; 100 nM row
Method: as §1

cSNK:BSA conjugate [14] = target: T1, cSNK:BSA conjugate; experiment: BLI 2:1 fit, column KD; 25 nM row
Method: as §1

cSNK:BSA conjugate [15] = target: T1, cSNK:BSA conjugate; experiment: BLI 2:1 fit, column kdis2; 6.25 nM row
Method: as §1

cSNK:BSA conjugate [16] = target: T1, cSNK:BSA conjugate; experiment: BLI 2:1 fit, column KD2; 6.25 nM row
Method: as §1

cSNK:BSA conjugate [17] = target: T1, cSNK:BSA conjugate; experiment: BLI 2:1 fit, column kdis; 50 nM row
Method: as §1

cSNK:BSA conjugate [18] = target: T1, cSNK:BSA conjugate; experiment: BLI 2:1 fit, column kdis2; 100 nM row
Method: as §1

cSNK:BSA conjugate [19] = target: T1, cSNK:BSA conjugate; experiment: BLI 2:1 fit, column KD; 12.5 nM row
Method: as §1

cSNK:BSA conjugate [20] = target: T1, cSNK:BSA conjugate; experiment: BLI 2:1 fit, column kdis2; 50 nM row
Method: as §1

cSNK:BSA conjugate [21] = target: T1, cSNK:BSA conjugate; experiment: BLI 2:1 fit, column kon2; 12.5 nM row
Method: as §1

cSNK:BSA conjugate [22] = target: T1, cSNK:BSA conjugate; experiment: BLI 2:1 fit, column kdis2; 12.5 nM row
Method: as §1

cSNK:BSA conjugate [23] = target: T1, cSNK:BSA conjugate; experiment: BLI 2:1 fit, column KD2; 12.5 nM row
Method: as §1

cSNK:BSA conjugate [24] = target: T1, cSNK:BSA conjugate; experiment: BLI 2:1 fit, column kon; 12.5 nM row
Method: as §1

cSNK:BSA conjugate [25] = target: T1, cSNK:BSA conjugate; experiment: BLI (Octet RED96), 2:1 kinetics, KD1, summary table
Method: as §1, §2

cSNK:BSA conjugate [26] = target: T1, cSNK:BSA conjugate; experiment: BLI 2:1 fit, column KD; 6.25 nM row
Method: as §1

cSNK:BSA conjugate [27] = target: T1, cSNK:BSA conjugate; experiment: BLI 2:1 fit, column KD; 100 nM row; 100 nM row, column KD (site with kon 4.16E+06, kdis 3.38E-02)
Method: as §1

cSNK:BSA conjugate [28] = target: T1, cSNK:BSA conjugate; experiment: BLI 2:1 fit, column kon; 25 nM row
Method: as §1

cSNK:BSA conjugate [29] = target: T1, cSNK:BSA conjugate; experiment: BLI 2:1 fit, column KD2; 25 nM row
Method: as §1

cSNK:BSA conjugate [30] = target: T1, cSNK:BSA conjugate; experiment: BLI 2:1 fit, column kdis; 12.5 nM row
Method: as §1

cSNK:BSA conjugate [31] = target: T1, cSNK:BSA conjugate; experiment: BLI 2:1 fit, column kdis; 100 nM row
Method: as §1

cSNK:BSA conjugate [32] = target: T1, cSNK:BSA conjugate; experiment: BLI 2:1 fit, column kon2; 50 nM row
Method: as §1

T1 sequence (P02769 25-607 limits assumed): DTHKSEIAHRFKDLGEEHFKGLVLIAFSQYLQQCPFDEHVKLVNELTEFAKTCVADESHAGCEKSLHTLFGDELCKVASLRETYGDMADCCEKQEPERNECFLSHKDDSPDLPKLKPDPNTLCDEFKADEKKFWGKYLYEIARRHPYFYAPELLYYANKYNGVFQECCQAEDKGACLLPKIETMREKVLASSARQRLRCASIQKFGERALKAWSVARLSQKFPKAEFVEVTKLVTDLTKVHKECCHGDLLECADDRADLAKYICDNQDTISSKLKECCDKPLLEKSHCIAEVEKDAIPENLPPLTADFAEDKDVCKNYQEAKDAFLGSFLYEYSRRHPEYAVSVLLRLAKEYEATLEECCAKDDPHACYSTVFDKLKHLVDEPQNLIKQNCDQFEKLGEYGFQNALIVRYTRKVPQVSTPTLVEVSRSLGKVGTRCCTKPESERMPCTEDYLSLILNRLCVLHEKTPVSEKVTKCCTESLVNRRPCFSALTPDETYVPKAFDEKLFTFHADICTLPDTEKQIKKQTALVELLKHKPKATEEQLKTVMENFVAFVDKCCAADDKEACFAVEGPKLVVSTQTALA

Kd (cSNK:BSA conjugate [1]): 1.28 nM
kon (cSNK:BSA conjugate [2]): 4.16e+06 M⁻¹ s⁻¹
kon (cSNK:BSA conjugate [3]): 4.16e+06 M⁻¹ s⁻¹
koff (cSNK:BSA conjugate [4]): 0.0338 s⁻¹
kon (cSNK:BSA conjugate [5]): 4.16e+06 M⁻¹ s⁻¹
kon (cSNK:BSA conjugate [6]): 698000 M⁻¹ s⁻¹
kon (cSNK:BSA conjugate [7]): 4.16e+06 M⁻¹ s⁻¹
Kd (cSNK:BSA conjugate [8]): 8.14 nM
koff (cSNK:BSA conjugate [9]): 0.00089 s⁻¹
Kd (cSNK:BSA conjugate [10]): 1.28 nM
koff (cSNK:BSA conjugate [11]): 0.00089 s⁻¹
kon (cSNK:BSA conjugate [12]): 698000 M⁻¹ s⁻¹
Kd (cSNK:BSA conjugate [13]): 1.28 nM
Kd (cSNK:BSA conjugate [14]): 1.28 nM
koff (cSNK:BSA conjugate [15]): 0.0338 s⁻¹
Kd (cSNK:BSA conjugate [16]): 8.14 nM
koff (cSNK:BSA conjugate [17]): 0.0338 s⁻¹
koff (cSNK:BSA conjugate [18]): 0.00089 s⁻¹
Kd (cSNK:BSA conjugate [19]): 1.28 nM
koff (cSNK:BSA conjugate [20]): 0.00089 s⁻¹
kon (cSNK:BSA conjugate [21]): 4.16e+06 M⁻¹ s⁻¹
koff (cSNK:BSA conjugate [22]): 0.0338 s⁻¹
Kd (cSNK:BSA conjugate [23]): 8.14 nM
kon (cSNK:BSA conjugate [24]): 698000 M⁻¹ s⁻¹
Kd (cSNK:BSA conjugate [25]): 8.14 nM
Kd (cSNK:BSA conjugate [26]): 1.28 nM
Kd (cSNK:BSA conjugate [27]): 8.14 nM
kon (cSNK:BSA conjugate [28]): 698000 M⁻¹ s⁻¹
Kd (cSNK:BSA conjugate [29]): 8.14 nM
koff (cSNK:BSA conjugate [30]): 0.00089 s⁻¹
koff (cSNK:BSA conjugate [31]): 0.0338 s⁻¹
kon (cSNK:BSA conjugate [32]): 698000 M⁻¹ s⁻¹
B1: rehu5E3-IgG2 (antibody, V domains shown)
VH: QVQLQQSGPEVVKPGASVKISCKASGYIFTSYYIQWVIHAPGQGLEWIGWIYPGNVNTKYNEKFKGKATLTADKSSSTAYMELSSLRSEDSAVYFCARMDYEAHYWGQGTLVTVSS
VL: DIQMTQSPSSLSASLGDRVTLTCRASQEISGYLTWLQQKPEKAIKRLIYAASTLDSGVPKRFSGSRSGSDYTLTISSLQPEDFADYNCLQYANYPRTFGGGTKLEIK
notes: human IgG2/kappa
